Assay results reported in paper PMC10850148.

T1: OY-M SAP05 (residues 33-135)
T1 chain: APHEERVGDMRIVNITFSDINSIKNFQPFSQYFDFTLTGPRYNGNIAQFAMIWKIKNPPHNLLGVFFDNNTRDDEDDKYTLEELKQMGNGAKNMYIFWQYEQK


Columns and labels:
[1] = molecular target: AtGATA18 ZnF domain (Arabidopsis thaliana) (UniProt Q8LC79); test: ITC
[2] = molecular target: AtSPL5 ZnF domain (residues 60-124) (Arabidopsis thaliana) (UniProt Q9S758); test: ITC
[3] = molecular target: MqGATA triple mutant (Y-R, M-K, N-R) (Macrosteles quadrilineatus); test: ITC
[4] = molecular target: AtSPL5 ZnF domain (residues 60-124) (UniProt Q9S758); test: ITC
[5] = molecular target: AtGATA18 ZnF domain (UniProt Q8LC79); test: ITC
[6] = molecular target: AtGATA18 ZnF domain (Arabidopsis thaliana) (UniProt Q8LC79); test: ITC; MicroCal PEAQ-ITC, 16 °C, 20 mM Tris-HCl pH 7.5, 150 mM NaCl; 660-700 μM protein injected into 40-50 μM protein in the cell; SAP05 titrated to the transcription factor; one-site model
[7] = molecular target: AtSPL5 ZnF domain (residues 60-124) (Arabidopsis thaliana) (UniProt Q9S758); test: as above
[8] = molecular target: T1, OY-M SAP05 (residues 33-135); test: ITC; conditions: chain shown with the change

| Molecule | Kd [5] | Kd [8] | also measured |
| --- | --- | --- | --- |
| OY-M SAP05 (residues 33-135) (domain or fragment) |  |  | Kd [1]: 140 nM; Kd [2]: 420 nM; Kd [3]: 900 nM |
| OY-M SAP05 (residues 33-135) E107A | 1300 nM |  | Kd [4]: 6300 nM |
| OY-M SAP05 (residues 33-135) D106A | 4000 nM |  |  |
| WBDLa SAP05 double mutant M86I-K70T (natural protein) |  |  | Kd [6]: 2700 nM; Kd [7]: 2600 nM |
| binary complex AtRPN10-SAP05 (from UniProt P55034 33-135; P55034 1-193) |  |  | Kd [1]: 100 nM; Kd [2]: 370 nM |
| OY-M SAP05 (residues 33-135) D108A | 5400 nM |  |  |
| OY-M SAP05 (residues 33-135) I84A | > 100000 nM |  |  |
| OY-M SAP05 E107A (domain or fragment) |  |  | fold decrease of binding affinity against wild-type SAP05 [7]: 15 fold |
| AtSPL5 ZnF domain (residues 60-124), Q9S758 S108A (protein) SRLCQVDRCTVNLTEAKQYYRRHRVCEVHAKASAATVAGVRQRFCQQCARFHELPEFDEAKRSCR |  | 1400 nM |  |
| AtGATA18 ZnF domain, Q8LC79 R182A (protein) GDSLLARRCANCDTTSTPLWRNGPRGPKSLCNACGIAFKKEERRTTAATGNT |  | 4400 nM |  |
| AtGATA18 ZnF domain, Q8LC79 R188A (protein) GDSLLARRCANCDTTSTPLWRNGPRGPKSLCNACGIRFKKEEARTTAATGNT |  | 500 nM |  |
| AtGATA18 ZnF domain, Q8LC79 K185A (protein) GDSLLARRCANCDTTSTPLWRNGPRGPKSLCNACGIRFKAEERRTTAATGNT |  | 580 nM |  |
| AtGATA18 ZnF domain, Q8LC79 I181A (protein) GDSLLARRCANCDTTSTPLWRNGPRGPKSLCNACGARFKKEERRTTAATGNT |  | 5000 nM |  |
